The values that follow come from US20240010684A1 (Bayer, published 2024).

Bridges are numbered along the chain shown (N, C = ends). Where no end group is shown, it is not given here. [ ]: non-standard residue; d: D form. Oic = O=C(O)[C@@H]1C[C@@H]2CCCC[C@@H]2N1; tBuAla = CC(C)(C)C[C@H](N)C(=O)O; PEG4 = NCCOCCOCCOCCOCCC(=O)O; Pen = CC(C)(S)[C@H](N)C(=O)O; Orn = NCCC[C@H](N)C(=O)O; Dab = NCC[C@H](N)C(=O)O; Dap = NC[C@H](N)C(=O)O; Ahx = NCCCCCC(=O)O; Sar = CNCC(=O)O

In the first experiment the target is T1, recombinant human MASP1 (amino acids 297-699, C-terminal His Tag) (human, UniProt P48740 297-699).
T1 sequence: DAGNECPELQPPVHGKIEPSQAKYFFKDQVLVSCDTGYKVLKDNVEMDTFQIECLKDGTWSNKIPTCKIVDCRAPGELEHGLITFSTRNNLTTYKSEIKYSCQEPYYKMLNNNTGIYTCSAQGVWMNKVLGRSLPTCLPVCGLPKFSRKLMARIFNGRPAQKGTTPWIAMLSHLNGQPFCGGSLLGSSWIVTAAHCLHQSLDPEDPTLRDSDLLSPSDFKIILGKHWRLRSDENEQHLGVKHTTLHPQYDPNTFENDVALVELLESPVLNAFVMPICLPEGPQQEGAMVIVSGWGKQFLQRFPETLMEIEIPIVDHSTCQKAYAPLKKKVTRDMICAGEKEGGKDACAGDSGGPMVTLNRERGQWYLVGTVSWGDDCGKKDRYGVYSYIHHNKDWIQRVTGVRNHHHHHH
Briefly: cell-based or functional assay.
With cyclo([Dap][Dab]ICSRS[tBuAla]PPI[Pen]I) (disulfide 4-12; also: TFA salt) [Example 73: (Dap)**-(Dab)-IC+SRS-((tBu)A)-PPI-(Pen)+-I**], the “human MASP1 IC50” value was 42 nM.
The same measure, in the same setting: then [Dap]GGICSRSLPPICIPD (lactam 1-C; disulfide 5-13; also: TFA salt) [Example 20: (Dap)++-GGIC+SRSLPPIC+IPD**], with 55 nM; and [Ahx]G[dA]ICSRSLP[Oic]I[Pen]IPE-NH2 (disulfide 5-13; lactam N-16; also: TFA salt) [Example 84: (Ahx)**-GaIC+SRSLP-(Oic)-I-(Pen)+-IPE++-NH2], with 15 nM.
Still for that read-out and setting: the figure for cyclo([Ahx]GICSRSLPPICIP[dD]) (disulfide 4-12; also: TFA salt) [Example 16: (Ahx)**-GIC+SRSLPPIC+IPd**] is 150 nM.
Still for that read-out and setting: the figure for [dK]ICSRS[tBuAla]PPI[Pen]I (lactam 1-C; disulfide 3-11; also: HCl salt) [Example 78: k++-IC+SRS-((tBu)A)-PPI-(Pen)+-I** (HCl Salt)] is 10 nM; for cyclo([Ahx]ICSRSLP[Oic]ICI) (disulfide 3-11; also: TFA salt) [Example 95: (Ahx)**-IC+SRSLP-(Oic)-IC+I**] it is 100 nM; for [Ahx]GICSRSLP[Oic]I[Pen]IPE-NH2 (disulfide 4-12; lactam N-15; also: TFA salt) [Example 83: (Ahx)**-GIC+SRSLP-(Oic)-I-(Pen)+-IPE++-NH2] it is 18 nM.
[Ahx][Sar]AICSRSLP[Oic]I[Pen]IPE-NH2 (disulfide 5-13; lactam N-16; also: TFA salt) [Example 77: (Ahx)**-((N-Me)G)-AIC+SRSLP-(Oic)-I-(Pen)+-IPE++-NH2]: the “human MASP1 IC50” value worked out at 11 nM.
On the same count and under the same terms, the figure for cyclo([Orn]GICSRS[tBuAla]PPI[Pen]IP) (disulfide 4-12; also: TFA salt) [Example 96: (Orn)**-GIC+SRS-((tBu)A)-PPI-(Pen)+-IP**] is 23 nM.
EGICSRSLP[Oic]I[Pen]IPDK-NH2 (lactam 1-16; disulfide 4-12; also: TFA salt) [Example 91: E++GIC+SRSLP-(Oic)-I-(Pen)+-IPDK++-NH2]: the “human MASP1 IC50” value worked out at 29 nM.
The same measure, in the same setting: the figure for [Ahx]GAICSRSLP[Oic]I[Pen]IPE-NH2 (disulfide 5-13; lactam N-16; also: TFA salt) [Example 82: (Ahx)**-GAIC+SRSLP-(Oic)-I-(Pen)+-IPE++-NH2] is 69 nM; for cyclo([PEG4]GICSRSLPPICIPD) (disulfide 4-12; also: TFA salt) [Example 14: (PEG3(16 atoms))**-GIC+SRSLPPIC+IPD**] it is 170 nM.
On the same count and under the same terms, the figure for [Ahx][dA]ICSRSLP[Oic]I[Pen]IPE-NH2 (disulfide 4-12; lactam N-15; also: HCl salt) [Example 79: (Ahx)**-aIC+SRSLP-(Oic)-I-(Pen)+-IPE++-NH2 (HCl Salt)] is 22 nM; for cyclo(AGGICSRSLPPICIPD) (disulfide 5-13; also: TFA salt) [Example 18: A**GGIC+SRSLPPIC+IPD**] it is 50 nM; for cyclo(ICSRS[tBuAla]PPI[Pen]IP) (disulfide 2-10; also: HCl salt) [Example 88: I**C+SRS-((tBu)A)-PPI-(Pen)+-IP** (HCl Salt)] it is 1000 nM.
On the same count and under the same terms, then cyclo([dA]GGICSRSLPPICIPD) (disulfide 5-13; also: TFA salt) [Example 19: a**GGIC+SRSLPPIC+IPD**], with 49 nM; and cyclo([Dap][Dap]ICSRS[tBuAla]PPI[Pen]IP) (disulfide 4-12; also: TFA salt) [Example 97: (Dap)**-(Dap)-IC+SRS-((tBu)A)-PPI-(Pen)+-IP**], with 5 nM.

For a further experiment, the target named is recombinant human MASP2 (amino acids 297-686, C-terminal His Tag) (human, UniProt O00187 297-686). Briefly: cell-based or functional assay.
Sequence of recombinant human MASP2 (amino acids 297-686, C-terminal His Tag) (O00187 other isoform, or with tags, fused parts or gaps limits assumed): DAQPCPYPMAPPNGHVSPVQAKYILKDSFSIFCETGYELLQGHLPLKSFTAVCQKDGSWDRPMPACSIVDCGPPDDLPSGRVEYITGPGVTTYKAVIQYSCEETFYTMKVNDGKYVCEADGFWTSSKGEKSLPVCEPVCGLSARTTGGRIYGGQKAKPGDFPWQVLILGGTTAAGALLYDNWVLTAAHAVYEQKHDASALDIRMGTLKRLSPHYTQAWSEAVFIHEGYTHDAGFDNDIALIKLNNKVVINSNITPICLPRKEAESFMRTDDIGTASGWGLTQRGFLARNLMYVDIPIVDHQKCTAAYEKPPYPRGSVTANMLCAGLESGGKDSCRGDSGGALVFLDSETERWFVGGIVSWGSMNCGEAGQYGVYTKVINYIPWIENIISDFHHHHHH
Regarding cyclo([Dap][Dab]ICSRS[tBuAla]PPI[Pen]I) (disulfide 4-12; also: TFA salt) [Example 73: (Dap)**-(Dab)-IC+SRS-((tBu)A)-PPI-(Pen)+-I**], the “human MASP2 IC50” value is 430 nM.
On the same count and under the same terms, then [Dap]GGICSRSLPPICIPD (lactam 1-C; disulfide 5-13; also: TFA salt) [Example 20: (Dap)++-GGIC+SRSLPPIC+IPD**], with 110 nM.
The same measure, in the same setting: then [Ahx]G[dA]ICSRSLP[Oic]I[Pen]IPE-NH2 (disulfide 5-13; lactam N-16; also: TFA salt) [Example 84: (Ahx)**-GaIC+SRSLP-(Oic)-I-(Pen)+-IPE++-NH2], with 87 nM.
On the same count and under the same terms, the figure for cyclo([Ahx]GICSRSLPPICIP[dD]) (disulfide 4-12; also: TFA salt) [Example 16: (Ahx)**-GIC+SRSLPPIC+IPd**] is 370 nM; for [dK]ICSRS[tBuAla]PPI[Pen]I (lactam 1-C; disulfide 3-11; also: HCl salt) [Example 78: k++-IC+SRS-((tBu)A)-PPI-(Pen)+-I** (HCl Salt)] it is 7 nM; for cyclo([Ahx]ICSRSLP[Oic]ICI) (disulfide 3-11; also: TFA salt) [Example 95: (Ahx)**-IC+SRSLP-(Oic)-IC+I**] it is 110 nM.
As for [Ahx]GICSRSLP[Oic]I[Pen]IPE-NH2 (disulfide 4-12; lactam N-15; also: TFA salt) [Example 83: (Ahx)**-GIC+SRSLP-(Oic)-I-(Pen)+-IPE++-NH2], the “human MASP2 IC50” value came out at 91 nM.
On the same count and under the same terms, then [Ahx][Sar]AICSRSLP[Oic]I[Pen]IPE-NH2 (disulfide 5-13; lactam N-16; also: TFA salt) [Example 77: (Ahx)**-((N-Me)G)-AIC+SRSLP-(Oic)-I-(Pen)+-IPE++-NH2], with 210 nM; and cyclo([Orn]GICSRS[tBuAla]PPI[Pen]IP) (disulfide 4-12; also: TFA salt) [Example 96: (Orn)**-GIC+SRS-((tBu)A)-PPI-(Pen)+-IP**], with 400 nM; and EGICSRSLP[Oic]I[Pen]IPDK-NH2 (lactam 1-16; disulfide 4-12; also: TFA salt) [Example 91: E++GIC+SRSLP-(Oic)-I-(Pen)+-IPDK++-NH2], with 71 nM.
The same measure, in the same setting: the figure for [Ahx]GAICSRSLP[Oic]I[Pen]IPE-NH2 (disulfide 5-13; lactam N-16; also: TFA salt) [Example 82: (Ahx)**-GAIC+SRSLP-(Oic)-I-(Pen)+-IPE++-NH2] is 700 nM; for cyclo([PEG4]GICSRSLPPICIPD) (disulfide 4-12; also: TFA salt) [Example 14: (PEG3(16 atoms))**-GIC+SRSLPPIC+IPD**] it is 240 nM.
Same read-out and setting: then [Ahx][dA]ICSRSLP[Oic]I[Pen]IPE-NH2 (disulfide 4-12; lactam N-15; also: HCl salt) [Example 79: (Ahx)**-aIC+SRSLP-(Oic)-I-(Pen)+-IPE++-NH2 (HCl Salt)], with 45 nM; and cyclo(AGGICSRSLPPICIPD) (disulfide 5-13; also: TFA salt) [Example 18: A**GGIC+SRSLPPIC+IPD**], with 15 nM.
Regarding cyclo(ICSRS[tBuAla]PPI[Pen]IP) (disulfide 2-10; also: HCl salt) [Example 88: I**C+SRS-((tBu)A)-PPI-(Pen)+-IP** (HCl Salt)], the “human MASP2 IC50” value is 1000 nM.
Still for that read-out and setting: then cyclo([dA]GGICSRSLPPICIPD) (disulfide 5-13; also: TFA salt) [Example 19: a**GGIC+SRSLPPIC+IPD**], with 210 nM; and cyclo([Dap][Dap]ICSRS[tBuAla]PPI[Pen]IP) (disulfide 4-12; also: TFA salt) [Example 97: (Dap)**-(Dap)-IC+SRS-((tBu)A)-PPI-(Pen)+-IP**], with 760 nM.
